Test [1] addresses CDHR3 Cys529→Tyr variant (human) (UniProt Q6ZTQ4). In words: virus bound to HeLa-E8 monolayers, viral RNA by real-time PCR. In general terms: Real-time PCR tracks product formation cycle by cycle.
The target is the same in test [2]. Briefly: cell-based or functional assay.
Test [3] has the same target. In words: virus bound to HeLa-E8 cells 2 h p.i., viral RNA by real-time PCR.

UniProt Q6ZTQ4, sequence (Q6ZTQ4 other isoform, or with tags, fused parts or gaps mutant): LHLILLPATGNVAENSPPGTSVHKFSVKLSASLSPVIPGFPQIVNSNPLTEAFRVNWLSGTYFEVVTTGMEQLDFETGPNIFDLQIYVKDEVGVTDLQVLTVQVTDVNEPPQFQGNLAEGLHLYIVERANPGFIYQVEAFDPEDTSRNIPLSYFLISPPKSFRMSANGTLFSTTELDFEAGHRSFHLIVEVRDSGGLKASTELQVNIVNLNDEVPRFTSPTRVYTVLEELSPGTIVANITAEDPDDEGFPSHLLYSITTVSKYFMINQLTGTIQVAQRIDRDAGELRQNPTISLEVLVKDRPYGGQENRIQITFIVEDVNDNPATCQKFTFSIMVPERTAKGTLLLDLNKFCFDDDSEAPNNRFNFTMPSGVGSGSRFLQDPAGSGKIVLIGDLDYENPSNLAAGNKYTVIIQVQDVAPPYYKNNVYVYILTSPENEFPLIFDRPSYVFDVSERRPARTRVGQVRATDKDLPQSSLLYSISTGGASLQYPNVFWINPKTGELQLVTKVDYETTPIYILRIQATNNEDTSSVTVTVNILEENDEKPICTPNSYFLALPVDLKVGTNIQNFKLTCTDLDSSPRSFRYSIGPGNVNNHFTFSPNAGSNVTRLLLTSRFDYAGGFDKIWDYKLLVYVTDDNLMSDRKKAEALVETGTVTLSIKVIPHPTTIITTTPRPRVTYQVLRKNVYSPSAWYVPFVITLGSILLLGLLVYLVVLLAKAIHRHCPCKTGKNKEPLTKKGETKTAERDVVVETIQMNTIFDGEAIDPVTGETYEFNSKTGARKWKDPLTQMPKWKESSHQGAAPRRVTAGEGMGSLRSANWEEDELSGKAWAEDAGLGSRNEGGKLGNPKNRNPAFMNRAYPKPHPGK

In the case of HeLa-E8 adapted RV-C15 (RV-C15a), the fold increase of virus binding against the parental isolate in test [1] was > 10 fold. In addition, the replication in HeLa-E8 compared to control HeLa cells (orders of magnitude) in test [2] worked out at 2. In addition, the binding compared to that of RV-C15-wt in test [3] was > 1 log.

The record behind these values is patent US20170082609A1.
